Reference: the supplement of paper PMC10567573

B1: PLK2 (parent)
chain: MELLRTITYQPAASTKMCEQALGK

Variants of: B1
Test: protein stability index of a GFP-peptide fusion (GPS, HEK-293T) (PSI 1-6); higher = more stable
Conditions: c terminus: a fixed tail appended
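Also: lentivirally expressed fusions sorted by FACS into six bins by GFP to DsRed ratio, PSI derived from sequencing read proportions per bin multiplied by bin number.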

Point of comparison: MGLLRTITYQPAASTKMCEQALGK [E2G], protein stability index 2.69. Against it:
- MELLMTITYQPAASTKMCEQALGK [R5M] — lower, 2.36
- MELLITITYQPAASTKMCEQALGK [R5I] — higher, 3.09
- MELLPTITYQPAASTKMCEQALGK [R5P] — higher, 3.83
- MELLNTITYQPAASTKMCEQALGK [R5N] — higher, 3.79
- MELLGTITYQPAASTKMCEQALGK [R5G] — higher, 3.02
- MELLHTITYQPAASTKMCEQALGK [R5H] — higher, 3.02
- MELLDTITYQPAASTKMCEQALGK [R5D] — higher, 3.95
- MELLWTITYQPAASTKMCEQALGK [R5W] — higher, 2.88
- MELLKTITYQPAASTKMCEQALGK [R5K] — higher, 3.52
- MELLTTITYQPAASTKMCEQALGK [R5T] — lower, 2.47
- MELLQTITYQPAASTKMCEQALGK [R5Q] — higher, 3.26
- MELLATITYQPAASTKMCEQALGK [R5A] — lower, 1.92
- MELLLTITYQPAASTKMCEQALGK [R5L] — higher, 3.55
- MELLSTITYQPAASTKMCEQALGK [R5S] — higher, 2.71
- MELLYTITYQPAASTKMCEQALGK [R5Y] — lower, 1.4
- MELLETITYQPAASTKMCEQALGK [R5E] — higher, 3.55
- MELLCTITYQPAASTKMCEQALGK [R5C] — lower, 1.47
- MELLFTITYQPAASTKMCEQALGK [R5F] — lower, 2.18
- MELLVTITYQPAASTKMCEQALGK [R5V] — higher, 4.09
- MEPLRTITYQPAASTKMCEQALGK [L3P] — higher, 3.11
- MEGLRTITYQPAASTKMCEQALGK [L3G] — lower, 1.89
- MEILRTITYQPAASTKMCEQALGK [L3I] — lower, 2.63
- MEALRTITYQPAASTKMCEQALGK [L3A] — higher, 2.82
- MEVLRTITYQPAASTKMCEQALGK [L3V] — lower, 2.49
- MEFLRTITYQPAASTKMCEQALGK [L3F] — lower, 2.56
- MEDLRTITYQPAASTKMCEQALGK [L3D] — lower, 2.46
- MEQLRTITYQPAASTKMCEQALGK [L3Q] — lower, 2.08
- MEHLRTITYQPAASTKMCEQALGK [L3H] — lower, 1.62
- MERLRTITYQPAASTKMCEQALGK [L3R] — lower, 2.24
- MEYLRTITYQPAASTKMCEQALGK [L3Y] — lower, 2.07
- METLRTITYQPAASTKMCEQALGK [L3T] — lower, 1.94
- MEELRTITYQPAASTKMCEQALGK [L3E] — lower, 2.56
- MENLRTITYQPAASTKMCEQALGK [L3N] — lower, 1.88
- MEMLRTITYQPAASTKMCEQALGK [L3M] — higher, 3.04
- MEWLRTITYQPAASTKMCEQALGK [L3W] — lower, 2.48
- MESLRTITYQPAASTKMCEQALGK [L3S] — lower, 2.21
- MEKLRTITYQPAASTKMCEQALGK [L3K] — lower, 1.37
- MECLRTITYQPAASTKMCEQALGK [L3C] — lower, 2.17
- MELLRMITYQPAASTKMCEQALGK [T6M] — lower, 1.73
- MELLRFITYQPAASTKMCEQALGK [T6F] — lower, 1.68
- MELLRCITYQPAASTKMCEQALGK [T6C] — lower, 1.92
- MELLRGITYQPAASTKMCEQALGK [T6G] — higher, 3.05
- MELLRPITYQPAASTKMCEQALGK [T6P] — higher, 4.1
- MELLRQITYQPAASTKMCEQALGK [T6Q] — lower, 1.93
- MELLRVITYQPAASTKMCEQALGK [T6V] — lower, 2.55
- MELLRKITYQPAASTKMCEQALGK [T6K] — lower, 2.19
- MELLRIITYQPAASTKMCEQALGK [T6I] — lower, 2.65
- MELLRNITYQPAASTKMCEQALGK [T6N] — higher, 2.81
- MELLRHITYQPAASTKMCEQALGK [T6H] — lower, 2.2
- MELLRWITYQPAASTKMCEQALGK [T6W] — lower, 1.99
- MELLRYITYQPAASTKMCEQALGK [T6Y] — lower, 1.6
- MELLRLITYQPAASTKMCEQALGK [T6L] — lower, 1.69
- MELLRSITYQPAASTKMCEQALGK [T6S] — lower, 1.64
- MELLREITYQPAASTKMCEQALGK [T6E] — higher, 3.17
- MELLRDITYQPAASTKMCEQALGK [T6D] — higher, 3.2
- MELLRRITYQPAASTKMCEQALGK [T6R] — lower, 2.04
- MELLRAITYQPAASTKMCEQALGK [T6A] — lower, 1.93
- MTLLRTITYQPAASTKMCEQALGK [E2T] — lower, 2.28
- MHLLRTITYQPAASTKMCEQALGK [E2H] — lower, 2.05
- MSLLRTITYQPAASTKMCEQALGK [E2S] — lower, 2.38
- MWLLRTITYQPAASTKMCEQALGK [E2W] — lower, 2.57
- MPLLRTITYQPAASTKMCEQALGK [E2P] — higher, 2.73
- MMLLRTITYQPAASTKMCEQALGK [E2M] — lower, 2.09
- MILLRTITYQPAASTKMCEQALGK [E2I] — lower, 1.51
- MVLLRTITYQPAASTKMCEQALGK [E2V] — lower, 2.13
- MQLLRTITYQPAASTKMCEQALGK [E2Q] — lower, 1.91
- MFLLRTITYQPAASTKMCEQALGK [E2F] — lower, 1.69
- MRLLRTITYQPAASTKMCEQALGK [E2R] — lower, 2.15
- MNLLRTITYQPAASTKMCEQALGK [E2N] — lower, 2.61
- MLLLRTITYQPAASTKMCEQALGK [E2L] — lower, 2.15
- MKLLRTITYQPAASTKMCEQALGK [E2K] — higher, 2.7
- MYLLRTITYQPAASTKMCEQALGK [E2Y] — lower, 2.03
- MELLRTATYQPAASTKMCEQALGK [I7A] — lower, 2.34
- MELLRTCTYQPAASTKMCEQALGK [I7C] — lower, 2.1
- MELIRTITYQPAASTKMCEQALGK [L4I] — higher, 2.92
- MELNRTITYQPAASTKMCEQALGK [L4N] — higher, 4.01
- MELWRTITYQPAASTKMCEQALGK [L4W] — lower, 1.7
- MELCRTITYQPAASTKMCEQALGK [L4C] — lower, 2.02
- MELYRTITYQPAASTKMCEQALGK [L4Y] — lower, 1.98
- MELRRTITYQPAASTKMCEQALGK [L4R] — higher, 3.26
- MELMRTITYQPAASTKMCEQALGK [L4M] — lower, 1.61
- MELSRTITYQPAASTKMCEQALGK [L4S] — higher, 3.91
- MELARTITYQPAASTKMCEQALGK [L4A] — lower, 2.55
- MELHRTITYQPAASTKMCEQALGK [L4H] — lower, 2.6
- MELPRTITYQPAASTKMCEQALGK [L4P] — higher, 4.25
- MELFRTITYQPAASTKMCEQALGK [L4F] — lower, 2.05
- MELDRTITYQPAASTKMCEQALGK [L4D] — higher, 4.39
- MELVRTITYQPAASTKMCEQALGK [L4V] — higher, 2.77
- MELKRTITYQPAASTKMCEQALGK [L4K] — higher, 4.05
- MELGRTITYQPAASTKMCEQALGK [L4G] — higher, 3.76
- MELQRTITYQPAASTKMCEQALGK [L4Q] — lower, 2.58
- MELERTITYQPAASTKMCEQALGK [L4E] — higher, 3.69
- MELTRTITYQPAASTKMCEQALGK [L4T] — higher, 3.67
